The values that follow come from article PMC12329599, “Acetylation of microtubule-binding PinX1 orchestrates ribosome biogenesis to nutrient starvation via the RNA polymerase I preinitiation complex” (The Journal of Biological Chemistry, 2025).

For the experiment, the target named is T1, Strep2-POLR1G (human, UniProt O15446 1-510).
T1 construct: POLR1G (RNA polymerase I subunit G), human, cloned into pET45a-Strep2; also called Strep2-tagged POLR1G; source: TSsetta (DE3) bacteria, purified (anti-Strep2 tag agarose beads)
As to the kind of experiment: pull-down; GST-PinX1 proteins on glutathione beads incubated with purified Strep2- or HA-tagged proteins in BC200 buffer (200 mM NaCl, 20 mM Tris-HCl pH 7.9, 20% glycerol, 0.2% NP-40) at 4 °C overnight; washed with BC500, BC200 or BC100; Western blot. As to conditions: both partners purified.

T1 sequence (O15446 whole entry): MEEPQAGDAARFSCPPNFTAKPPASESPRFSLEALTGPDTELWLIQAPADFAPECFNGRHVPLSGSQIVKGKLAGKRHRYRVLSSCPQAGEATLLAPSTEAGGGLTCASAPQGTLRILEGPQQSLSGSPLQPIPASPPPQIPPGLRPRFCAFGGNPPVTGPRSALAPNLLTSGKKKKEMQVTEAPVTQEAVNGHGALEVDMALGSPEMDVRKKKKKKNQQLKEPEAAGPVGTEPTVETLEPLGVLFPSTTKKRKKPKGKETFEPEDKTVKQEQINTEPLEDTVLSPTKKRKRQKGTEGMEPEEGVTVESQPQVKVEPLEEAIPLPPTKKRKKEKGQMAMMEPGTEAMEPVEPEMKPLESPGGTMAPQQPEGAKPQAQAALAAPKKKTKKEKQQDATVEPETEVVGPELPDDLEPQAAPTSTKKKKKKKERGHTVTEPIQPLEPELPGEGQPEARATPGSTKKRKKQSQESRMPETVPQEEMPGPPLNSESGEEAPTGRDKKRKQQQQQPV

B1: GST-PinX1 full-length (natural protein, human, UniProt Q96BK5 1-328, looked up)
chain: MSMLAERRRKQKWAVDPQNTAWSNDDSKFGQRMLEKMGWSKGKGLGAQEQGATDHIKVQVKNNHLGLGATINNEDNWIAHQDDFNQLLAELNTCHGQETTDSSDKKEKKSFSLEEKSKISKNRVHYMKFTKGKDLSSRSKTDLDCIFGKRQSKKTPEGDASPSTPEENETTTTSAFTIQEYFAKRMAALKNKPQVPVPGSDISETQVERKRGKKRNKEATGKDVESYLQPKAKRHTEGKPERAEAQERVAKKKSAPAEEQLRGPCWDQSSKASAQDAGDHVQPPEGRDFTLKPKKRRGKKKLQKPVEIAEDATLEETLVKKKKKKDSK
notes: PinX1, human, full length, cloned into pGEX-4T-3; also called GST-PinX1 FL; full length GST-PinX1; source: TSsetta (DE3) bacteria, IPTG-induced, purified (Glutathione-Sepharose 4B)
For B1, the binding result was “binds”.

B2: GST-PinX1 central section (aa 70–253) (domain or fragment, human, UniProt Q96BK5 70-253, looked up)
chain: TINNEDNWIAHQDDFNQLLAELNTCHGQETTDSSDKKEKKSFSLEEKSKISKNRVHYMKFTKGKDLSSRSKTDLDCIFGKRQSKKTPEGDASPSTPEENETTTTSAFTIQEYFAKRMAALKNKPQVPVPGSDISETQVERKRGKKRNKEATGKDVESYLQPKAKRHTEGKPERAEAQERVAKKK
notes: the truncations were of GST-PinX1; also called GST-PinX1 truncation; source: TSsetta (DE3) bacteria, IPTG-induced, purified (Glutathione-Sepharose 4B)
Take B2: the binding result is recorded as “binds”.
